Assays:
Test in all cases: cell-based or functional assay
[1] = target: Pyk2 (h) (human, UniProt Q14289 1-1009, limits assumed)
[2] = target: T1, ALK4(h) (human, UniProt P36896 150-505, limits assumed)
T1 sequence (looked up): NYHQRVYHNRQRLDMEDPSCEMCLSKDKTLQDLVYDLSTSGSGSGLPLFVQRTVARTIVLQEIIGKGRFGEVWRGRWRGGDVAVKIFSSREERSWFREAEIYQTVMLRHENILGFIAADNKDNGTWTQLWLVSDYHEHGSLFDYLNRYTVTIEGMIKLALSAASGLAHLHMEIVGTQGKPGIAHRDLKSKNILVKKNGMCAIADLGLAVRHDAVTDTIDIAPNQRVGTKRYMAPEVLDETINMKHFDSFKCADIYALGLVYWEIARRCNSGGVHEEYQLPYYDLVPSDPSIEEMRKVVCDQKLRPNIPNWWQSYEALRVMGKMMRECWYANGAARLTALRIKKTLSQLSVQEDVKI

[3] = target: T2, PhKγ2(h) (human, UniProt P15735 1-406)
T2 sequence (looked up): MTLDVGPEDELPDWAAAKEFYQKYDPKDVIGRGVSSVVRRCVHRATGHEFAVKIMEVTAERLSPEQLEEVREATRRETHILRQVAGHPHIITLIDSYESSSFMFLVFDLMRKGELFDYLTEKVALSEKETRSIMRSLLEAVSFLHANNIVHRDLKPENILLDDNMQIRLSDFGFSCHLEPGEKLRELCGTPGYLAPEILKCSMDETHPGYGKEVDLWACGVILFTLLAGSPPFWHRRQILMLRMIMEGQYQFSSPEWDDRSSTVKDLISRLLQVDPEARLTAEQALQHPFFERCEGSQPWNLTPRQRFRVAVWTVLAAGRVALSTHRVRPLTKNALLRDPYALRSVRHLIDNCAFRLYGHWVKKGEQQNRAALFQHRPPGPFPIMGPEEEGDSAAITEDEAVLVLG

[4] = target: AMPKα1(h) (human, UniProt Q13131 1-559)
[5] = target: T3, SGK2(h) (human, UniProt Q9HBY8 1-367, limits assumed)
T3 sequence (looked up): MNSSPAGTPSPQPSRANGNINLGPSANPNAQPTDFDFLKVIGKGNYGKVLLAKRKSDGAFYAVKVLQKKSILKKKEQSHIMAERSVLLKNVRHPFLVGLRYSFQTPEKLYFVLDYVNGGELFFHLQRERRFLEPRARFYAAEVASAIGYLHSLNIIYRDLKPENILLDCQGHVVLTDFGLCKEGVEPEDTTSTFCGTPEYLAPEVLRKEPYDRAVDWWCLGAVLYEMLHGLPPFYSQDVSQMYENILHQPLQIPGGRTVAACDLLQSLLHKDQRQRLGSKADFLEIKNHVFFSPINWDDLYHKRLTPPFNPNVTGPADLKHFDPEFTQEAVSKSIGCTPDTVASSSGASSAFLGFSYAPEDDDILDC

[6] = target: IR(h), activated (human, UniProt P06213 1005-1310, limits assumed)
[7] = target: T4, ULK3(h) (human, UniProt Q6PHR2 1-472, limits assumed)
T4 sequence (looked up): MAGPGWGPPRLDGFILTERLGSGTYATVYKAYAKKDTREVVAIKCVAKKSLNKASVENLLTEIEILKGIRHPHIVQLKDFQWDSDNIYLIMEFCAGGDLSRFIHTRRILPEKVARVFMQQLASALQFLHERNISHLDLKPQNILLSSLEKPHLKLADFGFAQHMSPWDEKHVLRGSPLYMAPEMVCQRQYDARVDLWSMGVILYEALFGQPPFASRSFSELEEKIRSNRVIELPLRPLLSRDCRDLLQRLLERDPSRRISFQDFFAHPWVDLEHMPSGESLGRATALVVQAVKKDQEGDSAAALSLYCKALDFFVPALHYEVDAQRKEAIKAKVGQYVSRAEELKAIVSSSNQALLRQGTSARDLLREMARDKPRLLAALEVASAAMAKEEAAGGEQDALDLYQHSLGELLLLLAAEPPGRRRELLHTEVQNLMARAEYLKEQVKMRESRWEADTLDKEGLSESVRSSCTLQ

[8] = target: Src(1-530)(h) (human, UniProt P12931 1-530)
[9] = target: PKBγ(h) (human, UniProt Q9Y243 1-479, limits assumed)
[10] = target: T5, DRAK1(h) (human, UniProt Q9UEE5 1-414, limits assumed)
T5 sequence (looked up): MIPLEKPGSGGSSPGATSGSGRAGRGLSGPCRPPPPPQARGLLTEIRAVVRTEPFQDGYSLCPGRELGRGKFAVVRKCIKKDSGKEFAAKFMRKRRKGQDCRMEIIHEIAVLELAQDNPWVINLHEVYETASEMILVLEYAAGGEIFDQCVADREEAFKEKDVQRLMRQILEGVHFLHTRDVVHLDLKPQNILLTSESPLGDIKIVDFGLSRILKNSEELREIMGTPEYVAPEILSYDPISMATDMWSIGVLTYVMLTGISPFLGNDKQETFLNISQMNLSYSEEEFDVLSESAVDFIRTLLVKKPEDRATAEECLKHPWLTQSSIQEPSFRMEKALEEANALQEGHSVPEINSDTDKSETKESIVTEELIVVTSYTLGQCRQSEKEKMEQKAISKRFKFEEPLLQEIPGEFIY

[11] = target: Met(M1268T)(h) (human, UniProt P08581-2 974-1408, limits assumed)
[12] = target: CLK3(h) (human, UniProt P49761 1-490, limits assumed)
[13] = target: cKit(D816V)(h) (human, UniProt P10721 544-976)
Chain of cKit(D816V)(h) (P10721 544-976 D816V): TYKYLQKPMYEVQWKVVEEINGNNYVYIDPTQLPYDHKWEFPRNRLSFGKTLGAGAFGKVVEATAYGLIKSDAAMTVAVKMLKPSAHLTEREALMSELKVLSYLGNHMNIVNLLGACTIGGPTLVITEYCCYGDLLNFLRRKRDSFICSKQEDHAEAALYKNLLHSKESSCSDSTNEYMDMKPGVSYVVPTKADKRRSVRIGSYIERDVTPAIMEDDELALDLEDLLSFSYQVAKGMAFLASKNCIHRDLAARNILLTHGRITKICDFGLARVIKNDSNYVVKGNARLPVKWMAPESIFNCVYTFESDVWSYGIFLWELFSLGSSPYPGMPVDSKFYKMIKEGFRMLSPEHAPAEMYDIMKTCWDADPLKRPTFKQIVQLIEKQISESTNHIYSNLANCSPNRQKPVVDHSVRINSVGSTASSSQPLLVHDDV

Chain of PKBγ(h) (Q9Y243 whole entry): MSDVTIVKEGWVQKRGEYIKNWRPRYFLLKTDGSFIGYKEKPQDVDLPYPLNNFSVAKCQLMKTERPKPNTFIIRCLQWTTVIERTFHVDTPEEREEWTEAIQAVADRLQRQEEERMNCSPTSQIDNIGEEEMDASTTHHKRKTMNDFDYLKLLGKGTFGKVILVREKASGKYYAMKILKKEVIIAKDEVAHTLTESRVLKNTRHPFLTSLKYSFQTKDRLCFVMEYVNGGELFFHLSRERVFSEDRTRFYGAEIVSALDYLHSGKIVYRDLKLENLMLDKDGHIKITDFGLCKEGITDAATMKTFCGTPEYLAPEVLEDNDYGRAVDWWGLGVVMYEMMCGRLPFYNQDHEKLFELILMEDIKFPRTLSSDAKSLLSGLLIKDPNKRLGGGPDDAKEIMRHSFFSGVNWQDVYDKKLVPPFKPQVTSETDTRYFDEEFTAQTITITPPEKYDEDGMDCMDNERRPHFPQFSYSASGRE
Chain of IR(h), activated (P06213 1005-1310 limits assumed): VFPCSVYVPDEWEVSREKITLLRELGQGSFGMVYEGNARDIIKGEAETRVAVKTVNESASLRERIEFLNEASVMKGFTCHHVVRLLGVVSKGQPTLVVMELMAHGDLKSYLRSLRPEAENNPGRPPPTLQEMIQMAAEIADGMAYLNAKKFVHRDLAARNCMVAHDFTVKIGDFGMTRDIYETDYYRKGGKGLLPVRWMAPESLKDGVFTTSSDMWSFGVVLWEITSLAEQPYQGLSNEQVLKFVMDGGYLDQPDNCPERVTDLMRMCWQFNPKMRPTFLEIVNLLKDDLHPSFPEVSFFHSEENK
Chain of CLK3(h) (P49761 whole entry): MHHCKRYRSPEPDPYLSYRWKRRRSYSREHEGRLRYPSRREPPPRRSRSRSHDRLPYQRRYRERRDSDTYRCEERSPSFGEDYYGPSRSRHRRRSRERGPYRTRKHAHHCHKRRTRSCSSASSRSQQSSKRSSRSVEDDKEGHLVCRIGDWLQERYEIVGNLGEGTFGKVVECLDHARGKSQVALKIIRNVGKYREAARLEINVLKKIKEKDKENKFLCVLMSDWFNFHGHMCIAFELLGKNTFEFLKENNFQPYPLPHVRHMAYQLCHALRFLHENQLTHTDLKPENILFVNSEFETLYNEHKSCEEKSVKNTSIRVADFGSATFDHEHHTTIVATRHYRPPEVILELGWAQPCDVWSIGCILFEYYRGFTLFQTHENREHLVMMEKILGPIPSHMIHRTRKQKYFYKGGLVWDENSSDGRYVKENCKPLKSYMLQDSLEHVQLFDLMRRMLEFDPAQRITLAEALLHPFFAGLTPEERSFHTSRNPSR
Chain of Pyk2 (h) (Q14289 whole entry): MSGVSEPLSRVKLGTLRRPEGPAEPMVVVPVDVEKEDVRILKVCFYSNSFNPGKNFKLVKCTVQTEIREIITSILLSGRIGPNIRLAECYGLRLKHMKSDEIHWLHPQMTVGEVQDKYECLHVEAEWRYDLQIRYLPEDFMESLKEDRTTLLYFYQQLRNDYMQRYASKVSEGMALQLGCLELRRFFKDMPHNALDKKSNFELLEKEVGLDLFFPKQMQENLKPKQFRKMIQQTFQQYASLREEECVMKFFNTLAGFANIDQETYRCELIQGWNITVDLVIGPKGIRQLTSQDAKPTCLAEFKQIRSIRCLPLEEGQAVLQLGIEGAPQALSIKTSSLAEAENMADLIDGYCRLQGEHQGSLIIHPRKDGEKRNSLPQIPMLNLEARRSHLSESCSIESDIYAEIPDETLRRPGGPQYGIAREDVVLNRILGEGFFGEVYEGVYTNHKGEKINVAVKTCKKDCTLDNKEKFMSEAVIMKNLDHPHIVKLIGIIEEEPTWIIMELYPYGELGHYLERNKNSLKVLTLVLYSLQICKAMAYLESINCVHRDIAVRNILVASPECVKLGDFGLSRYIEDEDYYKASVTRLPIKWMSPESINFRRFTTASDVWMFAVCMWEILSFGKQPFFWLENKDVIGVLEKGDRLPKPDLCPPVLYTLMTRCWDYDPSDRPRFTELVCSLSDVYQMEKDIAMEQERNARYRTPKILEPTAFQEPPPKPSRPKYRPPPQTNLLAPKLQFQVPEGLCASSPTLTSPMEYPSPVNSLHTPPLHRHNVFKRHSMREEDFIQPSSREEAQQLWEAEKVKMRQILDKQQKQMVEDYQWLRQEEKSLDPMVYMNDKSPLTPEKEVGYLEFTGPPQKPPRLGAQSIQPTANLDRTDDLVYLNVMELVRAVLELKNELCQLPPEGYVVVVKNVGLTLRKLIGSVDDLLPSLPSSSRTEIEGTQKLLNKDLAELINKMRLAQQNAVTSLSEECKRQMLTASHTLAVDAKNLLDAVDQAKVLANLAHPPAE
Chain of AMPKα1(h) (Q13131 whole entry): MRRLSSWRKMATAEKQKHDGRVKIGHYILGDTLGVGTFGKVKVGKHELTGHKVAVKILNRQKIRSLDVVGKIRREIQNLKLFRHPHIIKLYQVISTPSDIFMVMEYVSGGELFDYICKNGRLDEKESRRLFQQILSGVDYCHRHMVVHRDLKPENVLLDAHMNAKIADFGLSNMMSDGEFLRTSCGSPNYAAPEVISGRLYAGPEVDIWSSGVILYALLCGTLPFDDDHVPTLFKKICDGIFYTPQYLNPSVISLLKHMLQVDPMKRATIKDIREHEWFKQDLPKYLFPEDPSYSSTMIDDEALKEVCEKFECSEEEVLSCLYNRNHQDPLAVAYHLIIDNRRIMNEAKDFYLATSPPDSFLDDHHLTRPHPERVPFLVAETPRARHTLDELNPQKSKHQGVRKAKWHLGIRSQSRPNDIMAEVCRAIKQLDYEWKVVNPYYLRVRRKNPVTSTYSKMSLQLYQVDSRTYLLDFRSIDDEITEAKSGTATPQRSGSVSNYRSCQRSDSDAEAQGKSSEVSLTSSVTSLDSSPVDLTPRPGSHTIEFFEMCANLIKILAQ

KAFAKLAARLYRKALARQLGVAA [MMI-0400]
% activity, 100 µM [1]: 34%
% activity, 100 µM [2]: 130%
% activity, 100 µM [3]: 38%
% activity, 100 µM [4]: 87%
% activity, 100 µM [5]: 98%
% activity, 100 µM [6]: 59%
% activity, 100 µM [7]: 147%
% activity, 100 µM [8]: 19%
% activity, 100 µM [9]: 41%
% activity, 100 µM [10]: 14%
% activity, 100 µM [11]: 265%
% activity, 100 µM [12]: 84%
% activity, 100 µM [13]: 35%

FAKLAARLYRKALARQLGVAA [MMI-0300]
% activity, 100 µM [1]: 47%
% activity, 100 µM [2]: 140%
% activity, 100 µM [3]: 46%
% activity, 100 µM [4]: 71%
% activity, 100 µM [5]: 56%
% activity, 100 µM [6]: 79%
% activity, 100 µM [7]: 167%
% activity, 100 µM [8]: 23%
% activity, 100 µM [9]: 20%
% activity, 100 µM [10]: 14%
% activity, 100 µM [11]: 255%
% activity, 100 µM [12]: 61%
% activity, 100 µM [13]: 60%

— patent US20140072613A1 (published 2014)
